To fix the notation:
T1: human APJ receptor (human, UniProt P35414 1-380)
T1 sequence (looked up): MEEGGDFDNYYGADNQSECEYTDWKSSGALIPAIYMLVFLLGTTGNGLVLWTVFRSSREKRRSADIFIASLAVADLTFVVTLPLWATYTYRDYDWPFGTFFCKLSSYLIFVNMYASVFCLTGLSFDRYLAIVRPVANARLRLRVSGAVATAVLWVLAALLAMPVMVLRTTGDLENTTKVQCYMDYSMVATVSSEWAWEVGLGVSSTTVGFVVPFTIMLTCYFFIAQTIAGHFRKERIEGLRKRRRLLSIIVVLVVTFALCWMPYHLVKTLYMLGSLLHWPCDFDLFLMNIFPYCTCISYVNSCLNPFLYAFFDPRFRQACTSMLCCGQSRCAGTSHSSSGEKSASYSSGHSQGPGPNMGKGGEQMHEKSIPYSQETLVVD

T2: rat APJ receptor (rat, UniProt Q9JHG3 1-377)
T2 sequence (looked up): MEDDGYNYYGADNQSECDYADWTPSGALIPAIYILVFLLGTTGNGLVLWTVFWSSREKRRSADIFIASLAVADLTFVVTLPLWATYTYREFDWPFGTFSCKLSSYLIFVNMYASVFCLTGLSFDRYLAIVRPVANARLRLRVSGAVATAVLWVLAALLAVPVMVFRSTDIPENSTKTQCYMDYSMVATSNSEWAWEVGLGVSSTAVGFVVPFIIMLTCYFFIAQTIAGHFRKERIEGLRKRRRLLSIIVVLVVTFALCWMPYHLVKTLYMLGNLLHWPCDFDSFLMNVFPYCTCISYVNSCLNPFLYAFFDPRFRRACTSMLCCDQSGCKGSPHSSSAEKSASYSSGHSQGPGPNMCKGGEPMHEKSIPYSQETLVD

B1: Apelin polypeptide SEQ ID NO: 350 (peptide)
peptide: Tridecanoyl-[γGlu][AEEA][AEEA]RQRP[Nle][Cha]SAKG[Oic][Nle]P[Phe(4-Cl)]-OH
SMILES: CCCCCCCCCCCCC(=O)N[C@@H](CCC(=O)NCCOCCOCC(=O)NCCOCCOCC(=O)N[C@@H](CCCNC(=N)N)C(=O)N[C@@H](CCC(N)=O)C(=O)N[C@@H](CCCNC(=N)N)C(=O)N1CCC[C@H]1C(=O)N[C@@H](CCCC)C(=O)N[C@@H](CC1CCCCC1)C(=O)N[C@@H](CO)C(=O)N[C@@H](C)C(=O)N[C@@H](CCCCN)C(=O)NCC(=O)N1[C@H](C(=O)N[C@@H](CCCC)C(=O)N2CCC[C@H]2C(=O)N[C@@H](Cc2ccc(Cl)cc2)C(=O)O)C[C@@H]2CCCC[C@@H]21)C(=O)O
B2: Apelin polypeptide SEQ ID NO: 351 (peptide)
peptide: Tridecanoyl-[γGlu][AEEA][AEEA]RQRP[hArg][Cha]AA[Nle]G[Oic][Nle]P[Phe(4-Cl)]-OH
SMILES: CCCCCCCCCCCCC(=O)N[C@@H](CCC(=O)NCCOCCOCC(=O)NCCOCCOCC(=O)N[C@@H](CCCNC(=N)N)C(=O)N[C@@H](CCC(N)=O)C(=O)N[C@@H](CCCNC(=N)N)C(=O)N1CCC[C@H]1C(=O)N[C@@H](CCCCNC(=N)N)C(=O)N[C@@H](CC1CCCCC1)C(=O)N[C@@H](C)C(=O)N[C@@H](C)C(=O)N[C@@H](CCCC)C(=O)NCC(=O)N1[C@H](C(=O)N[C@@H](CCCC)C(=O)N2CCC[C@H]2C(=O)N[C@@H](Cc2ccc(Cl)cc2)C(=O)O)C[C@@H]2CCCC[C@@H]21)C(=O)O
B3: Apelin polypeptide SEQ ID NO: 336 (peptide)
peptide: Tridecanoyl-[γGlu][AEEA][AEEA]RQRP[hArg][Cha]SH[Nle]G[Oic][Nle]P[Phe(4-Cl)]-OH
SMILES: CCCCCCCCCCCCC(=O)N[C@@H](CCC(=O)NCCOCCOCC(=O)NCCOCCOCC(=O)N[C@@H](CCCNC(=N)N)C(=O)N[C@@H](CCC(N)=O)C(=O)N[C@@H](CCCNC(=N)N)C(=O)N1CCC[C@H]1C(=O)N[C@@H](CCCCNC(=N)N)C(=O)N[C@@H](CC1CCCCC1)C(=O)N[C@@H](CO)C(=O)N[C@@H](Cc1c[nH]cn1)C(=O)N[C@@H](CCCC)C(=O)NCC(=O)N1[C@H](C(=O)N[C@@H](CCCC)C(=O)N2CCC[C@H]2C(=O)N[C@@H](Cc2ccc(Cl)cc2)C(=O)O)C[C@@H]2CCCC[C@@H]21)C(=O)O
B4: Apelin polypeptide SEQ ID NO: 340 (peptide)
peptide: Tridecanoyl-[γGlu][AEEA][AEEA]RQRP[hArg][Cha]SA[Nle]G[Oic][Nle]P[Phe(4-Cl)]-OH
SMILES: CCCCCCCCCCCCC(=O)N[C@@H](CCC(=O)NCCOCCOCC(=O)NCCOCCOCC(=O)N[C@@H](CCCNC(=N)N)C(=O)N[C@@H](CCC(N)=O)C(=O)N[C@@H](CCCNC(=N)N)C(=O)N1CCC[C@H]1C(=O)N[C@@H](CCCCNC(=N)N)C(=O)N[C@@H](CC1CCCCC1)C(=O)N[C@@H](CO)C(=O)N[C@@H](C)C(=O)N[C@@H](CCCC)C(=O)NCC(=O)N1[C@H](C(=O)N[C@@H](CCCC)C(=O)N2CCC[C@H]2C(=O)N[C@@H](Cc2ccc(Cl)cc2)C(=O)O)C[C@@H]2CCCC[C@@H]21)C(=O)O
B5: Apelin polypeptide SEQ ID NO: 339 (peptide)
peptide: Tridecanoyl-[γGlu][AEEA][AEEA]RQ[Nle]P[hArg][Cha]SHKG[Oic][Nle]P[Phe(4-Cl)]-OH
SMILES: CCCCCCCCCCCCC(=O)N[C@@H](CCC(=O)NCCOCCOCC(=O)NCCOCCOCC(=O)N[C@@H](CCCNC(=N)N)C(=O)N[C@@H](CCC(N)=O)C(=O)N[C@@H](CCCC)C(=O)N1CCC[C@H]1C(=O)N[C@@H](CCCCNC(=N)N)C(=O)N[C@@H](CC1CCCCC1)C(=O)N[C@@H](CO)C(=O)N[C@@H](Cc1c[nH]cn1)C(=O)N[C@@H](CCCCN)C(=O)NCC(=O)N1[C@H](C(=O)N[C@@H](CCCC)C(=O)N2CCC[C@H]2C(=O)N[C@@H](Cc2ccc(Cl)cc2)C(=O)O)C[C@@H]2CCCC[C@@H]21)C(=O)O
B6: Apelin polypeptide SEQ ID NO: 479 (peptide)
peptide: Tridecanoyl-[γGlu][AEEA][AEEA][dR]Q[hArg]P[NMeR][Cha]SHKG[Oic][Nle]P[Phe(4-Cl)]-OH
SMILES: CCCCCCCCCCCCC(=O)N[C@@H](CCC(=O)NCCOCCOCC(=O)NCCOCCOCC(=O)N[C@H](CCCNC(=N)N)C(=O)N[C@@H](CCC(N)=O)C(=O)N[C@@H](CCCCNC(=N)N)C(=O)N1CCC[C@H]1C(=O)N(C)[C@@H](CCCNC(=N)N)C(=O)N[C@@H](CC1CCCCC1)C(=O)N[C@@H](CO)C(=O)N[C@@H](Cc1c[nH]cn1)C(=O)N[C@@H](CCCCN)C(=O)NCC(=O)N1[C@H](C(=O)N[C@@H](CCCC)C(=O)N2CCC[C@H]2C(=O)N[C@@H](Cc2ccc(Cl)cc2)C(=O)O)C[C@@H]2CCCC[C@@H]21)C(=O)O
B7: Apelin polypeptide SEQ ID NO: 345 (peptide)
peptide: Tridecanoyl-[γGlu][AEEA][AEEA]RQRP[Nle][Cha]AAKG[Oic][Nle]P[Phe(4-Cl)]-OH
SMILES: CCCCCCCCCCCCC(=O)N[C@@H](CCC(=O)NCCOCCOCC(=O)NCCOCCOCC(=O)N[C@@H](CCCNC(=N)N)C(=O)N[C@@H](CCC(N)=O)C(=O)N[C@@H](CCCNC(=N)N)C(=O)N1CCC[C@H]1C(=O)N[C@@H](CCCC)C(=O)N[C@@H](CC1CCCCC1)C(=O)N[C@@H](C)C(=O)N[C@@H](C)C(=O)N[C@@H](CCCCN)C(=O)NCC(=O)N1[C@H](C(=O)N[C@@H](CCCC)C(=O)N2CCC[C@H]2C(=O)N[C@@H](Cc2ccc(Cl)cc2)C(=O)O)C[C@@H]2CCCC[C@@H]21)C(=O)O
B8: Apelin polypeptide SEQ ID NO: 348 (peptide)
peptide: Tridecanoyl-[γGlu][AEEA][AEEA]RQ[Nle]P[hArg][Cha]AAKG[Oic][Nle]P[Phe(4-Cl)]-OH
SMILES: CCCCCCCCCCCCC(=O)N[C@@H](CCC(=O)NCCOCCOCC(=O)NCCOCCOCC(=O)N[C@@H](CCCNC(=N)N)C(=O)N[C@@H](CCC(N)=O)C(=O)N[C@@H](CCCC)C(=O)N1CCC[C@H]1C(=O)N[C@@H](CCCCNC(=N)N)C(=O)N[C@@H](CC1CCCCC1)C(=O)N[C@@H](C)C(=O)N[C@@H](C)C(=O)N[C@@H](CCCCN)C(=O)NCC(=O)N1[C@H](C(=O)N[C@@H](CCCC)C(=O)N2CCC[C@H]2C(=O)N[C@@H](Cc2ccc(Cl)cc2)C(=O)O)C[C@@H]2CCCC[C@@H]21)C(=O)O
B9: Apelin polypeptide SEQ ID NO: 343 (peptide)
peptide: Tridecanoyl-[γGlu][AEEA][AEEA]RQ[Nle]P[hArg][Cha]SAKG[Oic][Nle]P[Phe(4-Cl)]-OH
SMILES: CCCCCCCCCCCCC(=O)N[C@@H](CCC(=O)NCCOCCOCC(=O)NCCOCCOCC(=O)N[C@@H](CCCNC(=N)N)C(=O)N[C@@H](CCC(N)=O)C(=O)N[C@@H](CCCC)C(=O)N1CCC[C@H]1C(=O)N[C@@H](CCCCNC(=N)N)C(=O)N[C@@H](CC1CCCCC1)C(=O)N[C@@H](CO)C(=O)N[C@@H](C)C(=O)N[C@@H](CCCCN)C(=O)NCC(=O)N1[C@H](C(=O)N[C@@H](CCCC)C(=O)N2CCC[C@H]2C(=O)N[C@@H](Cc2ccc(Cl)cc2)C(=O)O)C[C@@H]2CCCC[C@@H]21)C(=O)O
B10: Apelin polypeptide SEQ ID NO: 344 (peptide)
peptide: Tridecanoyl-[γGlu][AEEA][AEEA]RQRP[Nle][Cha]AHKG[Oic][Nle]P[Phe(4-Cl)]-OH
SMILES: CCCCCCCCCCCCC(=O)N[C@@H](CCC(=O)NCCOCCOCC(=O)NCCOCCOCC(=O)N[C@@H](CCCNC(=N)N)C(=O)N[C@@H](CCC(N)=O)C(=O)N[C@@H](CCCNC(=N)N)C(=O)N1CCC[C@H]1C(=O)N[C@@H](CCCC)C(=O)N[C@@H](CC1CCCCC1)C(=O)N[C@@H](C)C(=O)N[C@@H](Cc1c[nH]cn1)C(=O)N[C@@H](CCCCN)C(=O)NCC(=O)N1[C@H](C(=O)N[C@@H](CCCC)C(=O)N2CCC[C@H]2C(=O)N[C@@H](Cc2ccc(Cl)cc2)C(=O)O)C[C@@H]2CCCC[C@@H]21)C(=O)O

Consider twelve molecules from patent US10941182 (Amgen, dated 2021).

Starred links: 1 amine or outer side, 2 acyl side, 3 side chain; linkers in the order of their positions; H or OH if unused. Non-standard residues stand in square brackets, D forms with d. Primed or numbered codes have the meaning given here. *: point of attachment. dBip = N[C@H](Cc1ccc(-c2ccccc2)cc1)C(=O)O; Oic = O=C(O)[C@@H]1C[C@@H]2CCCC[C@@H]2N1; Phe(4-Cl) = N[C@@H](Cc1ccc(Cl)cc1)C(=O)O; Phe(4-I) = N[C@@H](Cc1ccc(I)cc1)C(=O)O; γGlu = O=C(O)[C@H](CCC(=O)[*:2])N[*:1]; NMeR = CN[C@@H](CCCNC(=N)N)C(=O)O; Tridecanoyl = CCCCCCCCCCCCC(=O)*; hArg = N=C(N)NCCCC[C@H](N)C(=O)O; Cha = N[C@@H](CC1CCCCC1)C(=O)O; NMeL = CN[C@@H](CC(C)C)C(=O)O; Nle = CCCC[C@H](N)C(=O)O; Pip′ = not defined here; AEEA = NCCOCCOCC(=O)O

The first experiment has as its target T1, human APJ receptor. Nature of the experiment: cell-based or functional assay.
B1: the “EC50 Human APJ Receptor (GTPγS assay)” value was 0.285 nM.
The same measure, in the same setting: with B2 the figure was 1.59 nM; with B3, 0.714 nM.
The same measure, in the same setting: with B4 the figure was 0.345 nM; with B5, 2.55 nM; with B6, 0.409 nM.
The same measure, in the same setting: with Tridecanoyl-[γGlu][AEEA][AEEA][dR]QRP[hArg][NMeL]SHKG[Pip′][Phe(4-I)]P[dBip]-OH [Apelin polypeptide SEQ ID NO: 565] the figure was 1.02 nM; with B7, 4.51 nM.
Take B8: the “EC50 Human APJ Receptor (GTPγS assay)” value was determined as 4.92 nM.
The same measure, in the same setting: with Tridecanoyl-[γGlu][AEEA][AEEA]RQ[Nle]P[hArg][Cha]SAKG[Pip′][Nle]P[Phe(4-Cl)]-OH [Apelin polypeptide SEQ ID NO: 564] the figure was 0.331 nM; with B9, 1.4 nM; with B10, 3.46 nM.

The next experiment concerns the target T2, rat APJ receptor. Nature of the experiment: cell-based or functional assay.
As to B1, the “EC50 Rat APJ Receptor (GTPγS assay)” value is 0.624 nM.
Turning to B2, the “EC50 Rat APJ Receptor (GTPγS assay)” value came out at 1.8 nM.
Same read-out and setting: then B3, with 0.986 nM.
The same measure, in the same setting: with B4 the figure was 0.676 nM; with B5, 4.53 nM.
Take B6: the “EC50 Rat APJ Receptor (GTPγS assay)” value came out at 0.805 nM.
Consider Tridecanoyl-[γGlu][AEEA][AEEA][dR]QRP[hArg][NMeL]SHKG[Pip′][Phe(4-I)]P[dBip]-OH [Apelin polypeptide SEQ ID NO: 565], for which the “EC50 Rat APJ Receptor (GTPγS assay)” value was 2.82 nM.
Still for that read-out and setting: then B7, with 5.79 nM.
Still for that read-out and setting: with B8 the figure was 7.46 nM; with Tridecanoyl-[γGlu][AEEA][AEEA]RQ[Nle]P[hArg][Cha]SAKG[Pip′][Nle]P[Phe(4-Cl)]-OH [Apelin polypeptide SEQ ID NO: 564], 1.49 nM; with B9, 1.24 nM.
The same measure, in the same setting: then B10, with 5.58 nM.
